To fix the notation:
B1: FD-11A Fab (Fab, V domains shown)
VH: EVQLVESGGGVVQPGRSLRLSCAASGFTFSSYGMHWVRQAPGKGLEWVAVIWYDGSNKYYADSVKGRFTISRDNSKNTLYLQMNSLRAEDTAVYYCAKGPDILTGYYNYYYYGMDVWGQGTMVTVSS
VL: QSVLTQPPSVSGAPGQRVTISCTGSSSNIGAGYDVHWYQQLPGTAPKLLIYGNSNRPSGVPDRFSGSKSGTSASLAITGLQAEDEADYYCQSYDSSLSGFYVVFGGGTKLTVL
B2: FI-3A Fab (Fab, V domains shown)
VH: EVQLLESGGGLIQPGGSLRLSCAASGFTVSSNYMSWVRQAPGKGLEWVSVIYSGGSTYYADSVKGRFTISRDNSKNTLYLQMNSLRAEDTAVYYCARDHVRPGMNIWGQGTMVTVSS
VL: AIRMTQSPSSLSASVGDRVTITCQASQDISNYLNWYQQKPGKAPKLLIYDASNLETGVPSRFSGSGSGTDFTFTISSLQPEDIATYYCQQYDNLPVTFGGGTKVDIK
B3: FD-5D Fab (Fab, V domains shown)
VH: EVQLVESGGGLVQPGGSLRLSCAASGFTFSSYSMNWVRQAPGKGLEWVSYISSSSSTIYYADSVKGRFTISRDNAKNSLYLQMNSLRAEDTAVYYCASPGGITAAGTSVLFGYYGMDVWGQGTTVTVSS
VL: not shown

The target of this test is T1, SARS-CoV-2 receptor-binding domain (RBD), His-tagged (SARS-CoV-2, UniProt P0DTC2).
T1 construct: also called viral RBD; His-tagged RBD
Nature of the test: crystal structure. The following applies: both partners purified.
On to B1, for which the binding result is “binds”.
The value for B2 was “binds”; that for B3 was “binds”.

(Values after PMC8690919 (Theranostics, 2022).)
